Measurements: patent US11834499

Tests used:
[1] = target: CD3 on Jurkat cells (UniProt P07766); experiment: flow cytometry, Jurkat cells, anti-His secondary; A01 Jurkat-2o alone 1,501.76
[2] = target: human Claudin-18.2 (CLDN18.2) (human); experiment: flow cytometry, 2ug/reaction, trypsin to detach cells; HUPT4 cells; anti-his 2o only 12,730.43; same construct on ARK2 cells 37,777.38 (2o only 35,124.48)
[3] = target: CD16A (UniProt P08637); experiment: flow cytometry; Jurkat Lucia CD16A; only anti-his 2o AF647 652513 7,290.88
[4] = target: CD16A (UniProt P08637); experiment: flow cytometry, 2ug/reaction; Jurkat-Lucia-NFAT-CD16 cells; anti-his 2o only 18,863.83
[5] = target: human Claudin-18.2 (CLDN18.2) (human); experiment: flow cytometry; HUPT4 (CLDN18.2+); only anti-his 2o AF647 652513 12,046.33; same construct on ARK2 (CLDN18.2-) 39,787.16 (2o only 36,416.11)

Sequence of CD16A (P08637 17-254 limits assumed, form in doubt): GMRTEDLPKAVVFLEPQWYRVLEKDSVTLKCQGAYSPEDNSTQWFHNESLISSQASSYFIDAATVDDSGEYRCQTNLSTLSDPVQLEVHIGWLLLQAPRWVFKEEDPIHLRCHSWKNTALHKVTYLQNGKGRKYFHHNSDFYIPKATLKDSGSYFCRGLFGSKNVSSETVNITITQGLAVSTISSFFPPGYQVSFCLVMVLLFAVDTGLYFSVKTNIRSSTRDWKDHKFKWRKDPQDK
Sequence of CD3 on Jurkat cells (P07766 23-207 limits assumed): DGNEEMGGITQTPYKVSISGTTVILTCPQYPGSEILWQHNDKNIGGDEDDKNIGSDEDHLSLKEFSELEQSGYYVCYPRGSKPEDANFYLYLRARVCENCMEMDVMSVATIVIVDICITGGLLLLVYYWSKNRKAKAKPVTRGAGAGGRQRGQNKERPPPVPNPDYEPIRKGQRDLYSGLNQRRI

Row | Substance | FL4-H value printed beside the legend [1] | flow cytometry signal [2] | flow cytometry signal [3] | flow cytometry signal [4] | flow cytometry signal [5]
1 | Blincyto-His tag (bispecific antibody) | 16300 |  |  |  | 
2 | AFM13 (CD16A-CD30 BiTE) his tagged (bispecific antibody) |  | 15700 | 23500 | 76500 | 8940
